Data: publication PMC10957913, “GAS41 modulates ferroptosis by anchoring NRF2 on chromatin” (Nature Communications, 2024)

Molecular target: T1, Flag-tagged GAS41, purified (human, UniProt O95619 1-227)
T1 construct: GAS41, human, full-length cDNA amplified from A549 cDNA; also called purified GAS41 proteins
Experiment: pull-down; GST or GST-NRF2 fragments on GST Bind Resin incubated with purified GAS41 in BC200 buffer for 4 h at 4 °C, washed six times with BC200; western blot
Conditions: both partners purified

T1 sequence (O95619 whole entry): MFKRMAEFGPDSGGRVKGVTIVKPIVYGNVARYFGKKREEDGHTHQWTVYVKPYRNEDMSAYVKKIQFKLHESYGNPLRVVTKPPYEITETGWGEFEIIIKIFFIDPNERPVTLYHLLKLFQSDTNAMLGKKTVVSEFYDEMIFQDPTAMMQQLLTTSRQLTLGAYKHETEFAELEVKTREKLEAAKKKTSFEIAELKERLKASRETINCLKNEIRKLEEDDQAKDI

B1: GST-NRF2-CT (Neh1 and Neh3 domains of NRF2, AA. 434-605) (domain or fragment, UniProt Q16236 434-605, looked up)
chain: PGHRKTPFTKDKHSSRLEAHLTRDELRAKALHIPFPVEKIINLPVVDFNEMMSKEQFNEAQLALIRDIRRRGKNKVAAQNCRKRKLENIVELEQDLDHLKDEKEKLLKEKGENDKSLHLLKKQLSTLYLEVFSMLRDEDGKPYSPSEYSLQQTRDGNVFLVPKSKKPDVKKN
notes: NRF2, Neh1 and Neh3 domains, amino acids 434-605; That the 434-605 fragment is the construct called GST-NRF2-CT in the methods is inferred
binding result: binds
